{"source": "patent US20210301018A1", "about": "(ITABMED HK, published 2021)", "experiment_in_all_cases": "cell-based or functional assay", "key": {"[1]": {"target": "T1, human CD19 on cells (human B lymphocytes; Raji, Daudi and Reh tumor cells) (human, UniProt P15391 20-556)", "T1 sequence (looked up)": "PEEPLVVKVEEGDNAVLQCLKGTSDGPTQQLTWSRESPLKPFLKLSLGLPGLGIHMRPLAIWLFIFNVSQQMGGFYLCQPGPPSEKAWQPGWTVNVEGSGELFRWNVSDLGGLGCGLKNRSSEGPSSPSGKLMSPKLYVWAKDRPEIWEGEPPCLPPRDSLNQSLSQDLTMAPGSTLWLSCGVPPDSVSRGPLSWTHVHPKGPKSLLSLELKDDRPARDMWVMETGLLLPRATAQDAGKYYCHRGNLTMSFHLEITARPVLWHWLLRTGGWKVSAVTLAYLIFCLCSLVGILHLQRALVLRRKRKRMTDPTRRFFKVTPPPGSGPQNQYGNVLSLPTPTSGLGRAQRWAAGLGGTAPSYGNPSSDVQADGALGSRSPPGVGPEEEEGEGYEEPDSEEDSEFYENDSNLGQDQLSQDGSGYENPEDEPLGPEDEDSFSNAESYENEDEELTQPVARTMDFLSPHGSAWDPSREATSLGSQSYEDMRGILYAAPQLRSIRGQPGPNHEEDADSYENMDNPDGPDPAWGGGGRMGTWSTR"}, "[2]": {"target": "T1, human CD19 on cells (human B …)", "remark": "listed apart in the source"}, "[3]": {"target": "T2, cynomolgus monkey CD19 on cynomolgus monkey B lymphocytes (cynoPBMC) (cynomolgus monkey, UniProt A0A2K5W8L9 20-557)", "T2 sequence": "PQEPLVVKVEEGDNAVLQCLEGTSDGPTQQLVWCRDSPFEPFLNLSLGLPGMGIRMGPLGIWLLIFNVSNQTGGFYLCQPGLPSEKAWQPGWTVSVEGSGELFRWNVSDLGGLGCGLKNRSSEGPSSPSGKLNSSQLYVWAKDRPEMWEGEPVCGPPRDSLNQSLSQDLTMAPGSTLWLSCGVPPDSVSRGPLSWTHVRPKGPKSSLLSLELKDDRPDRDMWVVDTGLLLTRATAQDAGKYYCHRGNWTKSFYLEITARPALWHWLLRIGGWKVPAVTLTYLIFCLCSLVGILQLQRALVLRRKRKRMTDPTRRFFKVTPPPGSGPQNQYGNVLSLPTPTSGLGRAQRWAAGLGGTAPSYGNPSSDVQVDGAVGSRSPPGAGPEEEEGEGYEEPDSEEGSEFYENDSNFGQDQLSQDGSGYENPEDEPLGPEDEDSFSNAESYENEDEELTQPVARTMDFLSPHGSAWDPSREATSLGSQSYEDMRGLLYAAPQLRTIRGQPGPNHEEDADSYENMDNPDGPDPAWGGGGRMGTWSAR"}, "[4]": {"target": "T2, cynomolgus monkey CD19 on cynomolgus …", "remark": "listed apart in the source"}}, "data": [{"binder": "CD19×CD3 bispecific antigen binding protein ITAB2003 (bispecific antibody) EVQLVESGGGLVQPGGSLRLSCAASGFTFNTYAMNWVRQAPGKGLEWVARIRSKYNNYATYYADSVKDRFTISRDDSKNTLYLQMNSLRAEDTAVYYCVRHGNFGNSYVSWFAYWGQGTMVTVSSGGGGSGGGGSGGGGSQAVVTQEPSLTVSPGGTVTLTCRSSTGAVTTSNYANWVQQKPGQAPRGLIGGTNKRAPGTPARFSGSLLGGKAALTLSGVQPEDEAEYYCALWYSNLWVFGGGTKLTVLGRAGGGQVQLVQSGPELIKPGGSVKMSCKASGYTFTSYVMHWVRQKPGQGLEWIGYINPYNDGTKYNEKFKGRATLTSDKSSSTAYMELSSLRSEDSAVYYCARGTYYYGSRVFDYWGQGTTVTVSSASTKGPSVFPLAPSSKSTSGGTAALGCLVKDYFPEPVTVSWNSGALTSGVHTFPAVLQSSGLYSLSSVVTVPSSSLGTQTYICNVNHKPSNTKVDKKVEPKSCPPCGGGGSHHHHHH light: DVVMTQSPSSIPVTLGESVSISCRSSKSLLNSNGNTYLYWFQQRPGQSPQLLIYRMSNLASGVPDRFSGSGSGTDFTLRISGVEPEDVGVYYCMQHLEYPLTFGAGTKLEIKRTVAAPSVFIFPPSDEQLKSGTASVVCLLNNFYPREAKVQWKVDNALQSGNSQESVTEQDSKDSTYSLSSTLTLSKADYEKHKVYACEVTHQGLSSPVTKSFNRGECPPC", "values": [{"measurement": "EC50 of CD19×CD3 BSAP mediated human PBMC cytotoxicity against Raji tumor cells", "setting": "[1]", "result": 0.49, "unit": "ng/mL"}, {"measurement": "EC50 of CD19×CD3 BSAP mediated PBMC cytotoxicity against autologous B cells (human PBMC)", "setting": "[2]", "result": 2.1, "unit": "ng/mL"}, {"measurement": "EC50 of CD19×CD3 BSAP mediated PBMC cytotoxicity against autologous B cells (cynomolgus monkey PBMC)", "setting": "[3]", "result": "> 2090", "unit": "ng/mL"}]}, {"binder": "CD19×CD3 bispecific antigen binding protein ITAB2005 (bispecific antibody) EVQLVESGGGLVQPGGSLRLSCAASGFTFNTYAMNWVRQAPGKGLEWVARIRSKYNNYATYYADSVKDRFTISRDDSKNTLYLQMNSLRAEDTAVYYCVRHGNFGNSYVSWFAYWGQGTMVTVSSGGGGSGGGGSGGGGSQAVVTQEPSLTVSPGGTVTLTCRSSTGAVTTSNYANWVQQKPGQAPRGLIGGTNKRAPGTPARFSGSLLGGKAALTLSGVQPEDEAEYYCALWYSNLWVFGGGTKLTVLGRAGGGQVQLVQSGPELIKPGGSVKMSCKASGYTFTSYVMHWVRQKPGQGLEWIGYINPYNDGTKYNEKFKGRATLTSDKSSSTAYMELSSLRSEDSAVYYCARGTYYYGSRVFDYWGQGTTVTVSSASTKGPSVFPLAPSSKSTSGGTAALGCLVKDYFPEPVTVSWNSGALTSGVHTFPAVLQSSGLYSLSSVVTVPSSSLGTQTYICNVNHKPSNTKVDKKVEPKSCPPCGGGGSHHHHHH light: DVVMTQSPSSIPVTLGESVSISCRSSKSLQNVNGNTYLYWFQQRPGQSPQLLIYRMSNLNSGVPDRFSGSGSGTDFTLRISGVEPEDVGVYYCMQHLEYPITFGAGTKLEIKRTVAAPSVFIFPPSDEQLKSGTASVVCLLNNFYPREAKVQWKVDNALQSGNSQESVTEQDSKDSTYSLSSTLTLSKADYEKHKVYACEVTHQGLSSPVTKSFNRGECPPCS", "values": [{"measurement": "cell killing activity relative to ITAB2003 (human PBMC against autologous B cells)", "setting": "[1]", "result": "≥ 7", "unit": "fold"}, {"measurement": "cell killing activity relative to ITAB2003 (cynomolgus monkey PBMC against autologous B cells)", "setting": "[4]", "result": "≥ 62", "unit": "fold"}, {"measurement": "EC50 of CD19×CD3 BSAP mediated PBMC cytotoxicity against autologous B cells (human PBMC)", "setting": "[2]", "result": 0.3, "unit": "ng/mL"}, {"measurement": "EC50 of CD19×CD3 BSAP mediated PBMC cytotoxicity against autologous B cells (cynomolgus monkey PBMC)", "setting": "[3]", "result": 33.5, "unit": "ng/mL"}]}, {"binder": "CD19×CD3 bispecific antigen binding protein ITAB2006 (bispecific antibody) EVQLVESGGGLVQPGGSLRLSCAASGFTFNTYAMNWVRQAPGKGLEWVARIRSKYNNYATYYADSVKDRFTISRDDSKNTLYLQMNSLRAEDTAVYYCVRHGNFGNSYVSWFAYWGQGTMVTVSSGGGGSGGGGSGGGGSQAVVTQEPSLTVSPGGTVTLTCRSSTGAVTTSNYANWVQQKPGQAPRGLIGGTNKRAPGTPARFSGSLLGGKAALTLSGVQPEDEAEYYCALWYSNLWVFGGGTKLTVLGRAGGGGAGGGGQVQLVQSGPELIKPGGSVKMSCKASGYTFTSYVMHWVRQKPGQGLEWIGYINPYNDGTKYNEKFKGRATLTSDKSSSTAYMELSSLRSEDSAVYYCARGTYYYGSRVFDYWGQGTTVTVSSASTKGPSVFPLAPSSKSTSGGTAALGCLVKDYFPEPVTVSWNSGALTSGVHTFPAVLQSSGLYSLSSVVTVPSSSLGTQTYICNVNHKPSNTKVDKRVEPKSCPPCGGGGSHHHHHH light: DVVMTQSPSSIPVTLGESVSISCRSSKSLQNVNGNTYLYWFQQRPGQSPQLLIYRMSNLNSGVPDRFSGSGSGTDFTLRISGVEPEDVGVYYCMQHLEYPITFGAGTKLEIKRTVAAPSVFIFPPSDEQLKSGTASVVCLLNNFYPREAKVQWKVDNALQSGNSQESVTEQDSKDSTYSLSSTLTLSKADYEKHKVYACEVTHQGLSSPVTKSFNRGECPPCS", "values": [{"measurement": "cell killing activity relative to ITAB2003 (human PBMC against autologous B cells)", "setting": "[1]", "result": "≥ 7", "unit": "fold"}, {"measurement": "cell killing activity relative to ITAB2003 (cynomolgus monkey PBMC against autologous B cells)", "setting": "[4]", "result": "≥ 62", "unit": "fold"}, {"measurement": "EC50 of CD19×CD3 BSAP mediated PBMC cytotoxicity against autologous B cells (human PBMC)", "setting": "[2]", "result": 0.2, "unit": "ng/mL"}, {"measurement": "EC50 of CD19×CD3 BSAP mediated PBMC cytotoxicity against autologous B cells (cynomolgus monkey PBMC)", "setting": "[3]", "result": 18.5, "unit": "ng/mL"}]}]}
